Reference: publication PMC4522062, “Obatoclax is a direct and potent antagonist of membrane-restricted Mcl-1 and is synthetic lethal with treatment that induces Bim” (BMC Cancer, 2015)
Values belong to the molecule of their own block, whether it stands above or below them.

Assays:
[1] = biological target: N-Flag-human Mcl-1 C16A, C286A, Δ328-361, with a carboxyl-terminal hexa-His tag and a terminal Cys (human) (UniProt Q07820)
[2] = biological target: the molecule itself; assay: cross-linking; Bak conjugated onto liposomes (2 mol% Mal-PEG3-PE, 1 mol% DOGS-NTA-Ni, 2 mg lipid/ml), 100 mM KCl, 10 mM Hepes pH 7.0, 1 h at room temperature with Bim BH3 peptide (…-OH); proteoliposomes recovered by centrifugation; 0.5 mM BS3, 1 h at room temperature; SDS-PAGE and anti-Bak immunoblot

Chain of N-Flag-human Mcl-1 C16A, C286A, Δ328-361, with a carboxyl-terminal hexa-His tag and a terminal Cys (human) (Q07820 1-327 C16A/C286A): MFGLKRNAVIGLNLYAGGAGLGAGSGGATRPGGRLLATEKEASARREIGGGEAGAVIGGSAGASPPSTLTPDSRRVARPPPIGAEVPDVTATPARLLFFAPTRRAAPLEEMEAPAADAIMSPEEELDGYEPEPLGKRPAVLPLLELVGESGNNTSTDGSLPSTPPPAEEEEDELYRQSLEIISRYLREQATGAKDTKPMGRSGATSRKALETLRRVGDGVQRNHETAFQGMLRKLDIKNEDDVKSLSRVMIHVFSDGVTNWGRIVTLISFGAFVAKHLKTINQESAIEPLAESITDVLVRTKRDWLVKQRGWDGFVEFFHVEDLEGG

- tBid-induced (40 nM), Bak-dependent calcein release from proteoliposomes: molar excess of Noxa BH3 peptide relative to Mcl-1 that overcame the inhibition by Mcl-1 (molar excess relative to Mcl-1) [1]: 2.5
Molecule: Noxa BH3 peptide

B1: N-Flag-human Bak C14A, C166A, ΔC186-211, with a carboxyl-terminal hexa-His tag and a terminal Cys (domain or fragment, UniProt Q16611 1-185, looked up)
chain: MASGQGPGPPRQEAGEPALPSASEEQVAQDTEEVFRSYVFYRHQQEQEAEGVAAPADPEMVTLPLQPSSTMGQVGRQLAIIGDDINRRYDSEFQTMLQHLQPTAENAYEYFTKIATSLFESGINWGRVVALLGFGYRLALHVYQHGLTGFLGQVTRFVVDFMLHHAIARWIAQRGGWVAALNLGN
modifications: terminal Cys linked covalently to the liposome lipid Mal-PEG3-PE (where that lipid was included)
notes: Bak, human; the C-terminal TM segment (ΔC186-211) replaced by 6 His residues and a unique terminal Cys; The pET151 vector may add further N-terminal residues; also called BakΔC*; surface anchored Bak; source: E. coli BL21Star (pET151 vector), purified from the soluble extract on Ni2+-NTA resin; not shown: His6 followed by a terminal Cys, C-terminal, kept
- binding result [2]: binds
